The values that follow are results of earlier work, collected in publication PMC10364474.

For orientation: Kd means the concentration at which binding is half-saturated.

This series deals with integrin α5β1 (Homo sapiens) (UniProt P08648).
UniProt P08648, sequence (P08648 42-995, chain 1 of 2): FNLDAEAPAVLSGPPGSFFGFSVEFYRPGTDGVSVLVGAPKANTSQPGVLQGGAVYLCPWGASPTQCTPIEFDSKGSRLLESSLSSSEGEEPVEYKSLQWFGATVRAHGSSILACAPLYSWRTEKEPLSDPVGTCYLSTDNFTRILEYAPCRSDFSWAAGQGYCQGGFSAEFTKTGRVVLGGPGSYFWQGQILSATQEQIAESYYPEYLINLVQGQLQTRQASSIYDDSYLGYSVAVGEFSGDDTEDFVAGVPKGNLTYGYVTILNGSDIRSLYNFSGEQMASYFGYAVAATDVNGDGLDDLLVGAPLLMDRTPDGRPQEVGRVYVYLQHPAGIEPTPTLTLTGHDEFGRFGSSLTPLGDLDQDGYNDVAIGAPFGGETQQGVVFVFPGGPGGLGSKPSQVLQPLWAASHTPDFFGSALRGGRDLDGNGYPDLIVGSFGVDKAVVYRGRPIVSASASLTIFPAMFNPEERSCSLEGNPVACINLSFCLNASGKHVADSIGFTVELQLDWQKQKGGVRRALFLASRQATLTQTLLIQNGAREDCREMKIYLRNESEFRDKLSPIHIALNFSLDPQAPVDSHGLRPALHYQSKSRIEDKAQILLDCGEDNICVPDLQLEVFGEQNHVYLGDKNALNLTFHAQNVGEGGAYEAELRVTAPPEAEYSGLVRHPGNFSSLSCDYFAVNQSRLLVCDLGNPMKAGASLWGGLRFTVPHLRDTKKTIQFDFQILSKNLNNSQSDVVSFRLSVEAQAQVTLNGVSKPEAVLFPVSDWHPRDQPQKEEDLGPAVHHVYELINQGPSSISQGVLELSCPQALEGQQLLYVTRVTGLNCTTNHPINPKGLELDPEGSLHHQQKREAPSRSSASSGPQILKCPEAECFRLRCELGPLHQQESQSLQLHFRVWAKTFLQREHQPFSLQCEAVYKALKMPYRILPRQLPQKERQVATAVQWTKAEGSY
UniProt P08648, sequence (P05556 21-728, chain 2 of 2, further chain): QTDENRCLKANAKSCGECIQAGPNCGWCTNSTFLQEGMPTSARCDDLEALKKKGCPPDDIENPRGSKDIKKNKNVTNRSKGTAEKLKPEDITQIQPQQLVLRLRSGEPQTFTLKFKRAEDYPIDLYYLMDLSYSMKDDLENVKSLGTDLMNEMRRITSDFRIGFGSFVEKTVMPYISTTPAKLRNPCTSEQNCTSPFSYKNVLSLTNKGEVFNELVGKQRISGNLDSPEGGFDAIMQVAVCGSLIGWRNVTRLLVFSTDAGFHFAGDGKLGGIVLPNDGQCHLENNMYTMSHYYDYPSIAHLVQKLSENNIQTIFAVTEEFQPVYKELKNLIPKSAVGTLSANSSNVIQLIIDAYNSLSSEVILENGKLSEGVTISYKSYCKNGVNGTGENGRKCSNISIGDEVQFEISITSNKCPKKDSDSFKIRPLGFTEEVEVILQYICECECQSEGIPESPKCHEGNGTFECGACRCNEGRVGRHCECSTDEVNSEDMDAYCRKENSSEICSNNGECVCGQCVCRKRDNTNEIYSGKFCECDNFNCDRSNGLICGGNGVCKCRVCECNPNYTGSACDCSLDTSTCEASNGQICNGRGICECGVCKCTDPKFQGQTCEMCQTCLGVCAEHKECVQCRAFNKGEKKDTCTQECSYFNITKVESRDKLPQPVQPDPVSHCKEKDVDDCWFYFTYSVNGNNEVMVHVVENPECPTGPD

In the case of “Fibrinogen alpha chain RGD 572-574 (from UniProt P02671)”, the equilibrium dissociation constant (Kd) is 65 nM.
